Patent publication US20250197476A1
Blank lines part the entries; values can stand above or below the substance they belong to.

Assays:
[1] = target: Fc gamma receptors of NK cells; assay: cytofluorometry, NK cells, 10 µg/ml, no competing IgG (same values as Table 9)
[2] = target: Fc gamma receptors of NK cells; assay: cytofluorometry, NK cells, 10 µg/ml, 30 min at 37 °C
[3] = target: Fc gamma receptors of NK cells; assay: cytofluorometry, NK cells, 30 min at 37 °C
[4] = target: Fc gamma receptors of NK cells; assay: cytofluorometry, NK cells, 24 h at 37 °C
[5] = target: Fc gamma receptors of NK cells; assay: cytofluorometry, NK cells, 48 h at 37 °C
[6] = target: Fc gamma receptors of NK cells; assay: competition, cytofluorometry on NK cells; human IgG at 10 µg/ml against FcSDHFSTIE-N3-DBCO-A647 at 10 µg/ml
[7] = target: Fc gamma receptors of NK cells; assay: competition, cytofluorometry on NK cells; human IgG at 1000 µg/ml against FcSDHFSTIE-N3-DBCO-A647 at 10 µg/ml
[8] = target: Fc gamma receptors of NK cells; assay: competition, cytofluorometry on NK cells; human IgG at 100 µg/ml against FcSDHFSTIE-N3-DBCO-A647 at 10 µg/ml
[9] = target: Fc gamma receptors of NK cells; assay: competition, cytofluorometry on NK cells; human IgG at 10000 µg/ml against FcSDHFSTIE-N3-DBCO-A647 at 10 µg/ml
[10] = target: Fc gamma receptors of NK cells; assay: competition, cytofluorometry on NK cells; human IgG at 1 µg/ml against FcSDHFSTIE-N3-DBCO-A647 at 10 µg/ml
[11] = target: Fc gamma receptors of human macrophages; assay: cytofluorometry, human macrophages with 5 µg/ml hybrid for 20 h at 37 °C, anti-Fc-FITC
[12] = target: Fc gamma receptors of human macrophages; assay: cytofluorometry, human macrophages with 5 µg/ml hybrid for 2 h at 37 °C, anti-Fc-FITC

MFI [1]: 38500 | MFI [2]: 38500
Substance: FcSDHFSTIE-N3-DBCO-A647 (from UniProt P01857 104-330)

MFI [3]: 2970 | MFI [4]: 2350 | MFI [5]: 1710
Substance: FcSDHFSTIE-N3-DBCO-A488 (from UniProt P01857 104-330)

MFI of FcSDHFSTIE-N3-DBCO-A647 with competing IgG [6]: 38800 | RATIO of FcSDHFSTIE-N3-DBCO-A647 with competing IgG [6]: 183 | MFI of FcSDHFSTIE-N3-DBCO-A647 with competing IgG [7]: 29500 | RATIO of FcSDHFSTIE-N3-DBCO-A647 with competing IgG [7]: 139 | MFI of FcSDHFSTIE-N3-DBCO-A647 with competing IgG [8]: 36300 | RATIO of FcSDHFSTIE-N3-DBCO-A647 with competing IgG [8]: 171 | MFI of FcSDHFSTIE-N3-DBCO-A647 with competing IgG [9]: 20500 | RATIO of FcSDHFSTIE-N3-DBCO-A647 with competing IgG [9]: 96.6 | MFI of FcSDHFSTIE-N3-DBCO-A647 with competing IgG [10]: 37900 | RATIO of FcSDHFSTIE-N3-DBCO-A647 with competing IgG [10]: 179
Substance: human IgG (antibody)

fluorescence (Macrophages) [11]: 1000 | fluorescence (Macrophages) [12]: 808
Substance: FcWT-N3-DBCO-β60-74Cit (from UniProt P01857 104-330)

fluorescence (Macrophages) [11]: 404 | fluorescence (Macrophages) [12]: 502
Substance: FcLALAPG-N3-DBCO-β60-74Cit (from UniProt P01857 104-330)

MFI [3]: 4590 | MFI [4]: 4090 | MFI [5]: 4340
Substance: FcSDHFSTIE-N3-DBCO-PEG3-β60-74cit-lysineA488 (from UniProt P01857 104-330)

MFI [2]: 450
Substance: FcLALAPG-N3-DBCO-A647 (from UniProt P01857 104-330)

fluorescence (Macrophages) [11]: 1460 | fluorescence (Macrophages) [12]: 1330
Substance: FcSDHFSTIE-N3-DBCO-β60-74Cit (from UniProt P01857 104-330)
